The record followed here is patent US20240343814A1.

Substitutions are numbered along the chain they refer to.

The target in assay [1] is Recombinant human his-tagged IGF 1R extracellular domain protein (human) (UniProt P08069). As to the kind of experiment: SPR, captured IgG, IGF-1R ECD-his analyte, dissociation pH 6.
The target is the same in assay [2]. The experiment in a line: SPR, captured IgG, IGF-1R ECD-his analyte, dissociation pH 7.4.

B1: VRDN-02544 (antibody, V domains shown)
VH: EVQLVQSGGGLVKPGGSLRLSCAASGFTFSSFAMHWVRQAPGKGLEWISVIDTRGATYYADSVKGRFTISRDNAKNSLYLQMNSLRAEDTAVYYCARLGNFYYGMDVWGQGTTVTVSS
VL: EIVLTQSPGTLSVSPGERATLSCRASQSIGSSLHWYQQKPGQAPRLLIKYASQSHSGIPDRFSGSGSGTDFTLTISRLEPEDFAVYYCHQSSRLPHTFGQGTKVEIK
Regarding B1, in assay [1], the Kd was found to be 0.0275 nM, the koff was determined as 1e-06 s⁻¹ and the kon came to 36300 M⁻¹ s⁻¹. Besides, in assay [2], the Kd came out at 0.483 nM, the koff was 6.18e-05 s⁻¹ and the on-rate (kon) turned out to be 128000 M⁻¹ s⁻¹.

B2: VRDN-02556 (antibody, V domains shown)
VH: B1 VH with G104H
VL: B1 VL with Y50H, H55L
As to B2, in assay [1], the dissociation constant Kd is 8.47 nM, the koff came out at 0.0146 s⁻¹ and the kon turned out to be 1.72e+06 M⁻¹ s⁻¹. Besides, in assay [2], the Kd worked out at 10.4 nM, the koff turned out to be 0.0127 s⁻¹ and the kon was 1.22e+06 M⁻¹ s⁻¹.

B3: VRDN-02548 (antibody, V domains shown)
VH: B1 VH
VL: B1 VL with H55L, S92H
On to B3, for which, in assay [1], the Kd is 0.0251 nM, the off-rate (koff) was found to be 1e-06 s⁻¹ and the on-rate (kon) came out at 39800 M⁻¹ s⁻¹. Further, in assay [2], the Kd is 0.721 nM, the koff was 8.72e-05 s⁻¹ and the kon came out at 121000 M⁻¹ s⁻¹.

B4: VRDN-02505 (antibody, V domains shown)
VH: B1 VH with S30H
VL: B1 VL with H55L
Take B4: in assay [1], the Kd is 0.0422 nM, the koff worked out at 1e-06 s⁻¹ and the association rate constant (kon) turned out to be 23700 M⁻¹ s⁻¹. Further, in assay [2], the Kd was 2.6 nM, the koff stood at 0.000375 s⁻¹ and the kon is 144000 M⁻¹ s⁻¹.

B5: VRDN-02560 (antibody, V domains shown)
VH: B1 VH with A33H, G104H
VL: B1 VL with H55L
As to B5, in assay [1], the Kd was 0.996 nM, the koff came to 0.000541 s⁻¹ and the kon amounted to 543000 M⁻¹ s⁻¹. In assay [2], the Kd is 0.933 nM, the koff was found to be 0.0336 s⁻¹ and the kon is 3.61e+07 M⁻¹ s⁻¹.

B6: VRDN-02507 (antibody, V domains shown)
VH: B1 VH with F32H
VL: B1 VL with H55L
As for B6, in assay [1], the Kd is 0.0469 nM, the koff came out at 1e-06 s⁻¹ and the kon turned out to be 21300 M⁻¹ s⁻¹. Also, in assay [2], the dissociation constant (Kd) was 0.1 nM, the koff was 1.99e-05 s⁻¹ and the kon amounted to 199000 M⁻¹ s⁻¹.

B7: VRDN-02546 (antibody, V domains shown)
VH: B1 VH
VL: B1 VL with H55L, Q90H
For the molecule B7, in assay [1], the Kd is 0.0259 nM, the koff is 1e-06 s⁻¹ and the kon was found to be 38600 M⁻¹ s⁻¹. For the same molecule, in assay [2], the Kd is 0.491 nM, the koff turned out to be 5.94e-05 s⁻¹ and the kon stood at 121000 M⁻¹ s⁻¹.

B8: VRDN-02565 (antibody, V domains shown)
VH: B1 VH with A96H, G104H
VL: B1 VL with H55L
Turning to B8, in assay [1], the Kd came to 5.77 nM, the koff stood at 0.0198 s⁻¹ and the on-rate constant (kon) was 3.43e+06 M⁻¹ s⁻¹. Moreover, in assay [2], the Kd is 9.12 nM, the koff came out at 0.0243 s⁻¹ and the kon was 2.66e+06 M⁻¹ s⁻¹.

B9: VRDN-02550 (antibody, V domains shown)
VH: B1 VH
VL: B1 VL with H55L, L94H
In the case of B9, in assay [1], the dissociation constant Kd came out at 0.027 nM, the koff was 1e-06 s⁻¹ and the kon worked out at 37000 M⁻¹ s⁻¹. In assay [2], the Kd stood at 0.131 nM, the koff turned out to be 2.09e-05 s⁻¹ and the kon came to 160000 M⁻¹ s⁻¹.

B10: VRDN-02552 (antibody, V domains shown)
VH: B1 VH
VL: B1 VL with H55L, T97H
In the case of B10, in assay [1], the Kd came out at 0.0239 nM, the koff turned out to be 1e-06 s⁻¹ and the kon is 41900 M⁻¹ s⁻¹. Also, in assay [2], the Kd was found to be 0.0311 nM, the koff was 1e-06 s⁻¹ and the kon was found to be 32200 M⁻¹ s⁻¹.

B11: VRDN-02511 (antibody, V domains shown)
VH: B1 VH with T53H
VL: B1 VL with H55L
In the case of B11, in assay [1], the dissociation constant (Kd) is 4.28 nM, the koff amounted to 0.000672 s⁻¹ and the kon was 157000 M⁻¹ s⁻¹. For the same molecule, in assay [2], the equilibrium dissociation constant (Kd) is 41.6 nM, the koff was 0.0319 s⁻¹ and the kon was found to be 766000 M⁻¹ s⁻¹.

B12: VRDN-02551 (antibody, V domains shown)
VH: B1 VH
VL: B1 VL with H55L, P95H
With B12, in assay [1], the dissociation constant (Kd) worked out at 0.0348 nM, the koff was 1e-06 s⁻¹ and the kon is 28700 M⁻¹ s⁻¹. Moreover, in assay [2], the Kd stood at 0.771 nM, the koff stood at 6.38e-05 s⁻¹ and the kon is 82800 M⁻¹ s⁻¹.

B13: VRDN-02510 (antibody, V domains shown)
VH: B1 VH with D52H
VL: B1 VL with H55L
Consider B13, for which, in assay [1], the Kd is 3.84 nM, the koff is 0.000116 s⁻¹ and the kon came out at 30200 M⁻¹ s⁻¹. In assay [2], the dissociation constant Kd is 0.214 nM, the koff amounted to 5.3e-05 s⁻¹ and the kon came out at 248000 M⁻¹ s⁻¹.

B14: VRDN-02506 (antibody, V domains shown)
VH: B1 VH with S31H
VL: B1 VL with H55L
Turning to B14, in assay [1], the Kd amounted to 0.0267 nM, the koff amounted to 1e-06 s⁻¹ and the kon stood at 37400 M⁻¹ s⁻¹. For the same molecule, in assay [2], the dissociation constant Kd came to 0.0143 nM, the koff amounted to 1e-06 s⁻¹ and the kon was found to be 69900 M⁻¹ s⁻¹.

B15: VRDN-02509 (antibody, V domains shown)
VH: B1 VH with M34H
VL: B1 VL with H55L
As to B15, in assay [1], the dissociation constant Kd was determined as 0.0285 nM, the koff stood at 1e-06 s⁻¹ and the on-rate constant (kon) is 35100 M⁻¹ s⁻¹. In assay [2], the Kd is 0.285 nM, the koff was 4.81e-05 s⁻¹ and the kon is 169000 M⁻¹ s⁻¹.

B16: VRDN-02557 (antibody, V domains shown)
VH: B1 VH with M105H
VL: B1 VL with Y50H, H55L
In the case of B16, in assay [1], the Kd amounted to 0.615 nM, the koff amounted to 0.00239 s⁻¹ and the kon worked out at 3.88e+06 M⁻¹ s⁻¹. For the same molecule, in assay [2], the Kd came out at 8.16 nM, the koff was found to be 0.00119 s⁻¹ and the kon amounted to 146000 M⁻¹ s⁻¹.

B17: VRDN-02567 (antibody, V domains shown)
VH: B1 VH with G104H, M105H
VL: B1 VL with H55L
As for B17, in assay [1], the Kd was found to be 5.41 nM, the koff is 0.000569 s⁻¹ and the kon was determined as 105000 M⁻¹ s⁻¹. Besides, in assay [2], the Kd turned out to be 2.77 nM, the koff is 0.000473 s⁻¹ and the kon turned out to be 171000 M⁻¹ s⁻¹.

B18: VRDN-02508 (antibody, V domains shown)
VH: B1 VH with A33H
VL: B1 VL with H55L
Consider B18, for which, in assay [1], the dissociation constant (Kd) worked out at 3.9 nM, the koff was found to be 0.000207 s⁻¹ and the kon stood at 53100 M⁻¹ s⁻¹. Moreover, in assay [2], the Kd was 0.00515 nM, the off-rate (koff) turned out to be 1e-06 s⁻¹ and the kon was determined as 194000 M⁻¹ s⁻¹.

B19: VRDN-02545 (antibody, V domains shown)
VH: B1 VH
VL: B1 VL with H55L, S56H
B19: in assay [1], the dissociation constant Kd worked out at 0.027 nM, the koff stood at 1e-06 s⁻¹ and the kon worked out at 37000 M⁻¹ s⁻¹. Also, in assay [2], the dissociation constant (Kd) came to 0.622 nM, the koff was 3.03e-05 s⁻¹ and the kon is 48700 M⁻¹ s⁻¹.

B20: VRDN-02547 (antibody, V domains shown)
VH: B1 VH
VL: B1 VL with H55L, S91H
With B20, in assay [1], the Kd amounted to 0.0251 nM, the koff amounted to 1e-06 s⁻¹ and the kon was found to be 39800 M⁻¹ s⁻¹. Also, in assay [2], the Kd stood at 0.0084 nM, the koff stood at 1e-06 s⁻¹ and the kon stood at 119000 M⁻¹ s⁻¹.

B21: VRDN-02559 (antibody, V domains shown)
VH: B1 VH with A33H, A96H
VL: B1 VL with H55L
In the case of B21, in assay [1], the Kd stood at 1.74 nM, the koff was 0.000567 s⁻¹ and the kon turned out to be 327000 M⁻¹ s⁻¹. In assay [2], the Kd was found to be 0.593 nM, the koff is 0.000503 s⁻¹ and the kon stood at 849000 M⁻¹ s⁻¹.

B22: VRDN-02512 (antibody, V domains shown)
VH: B1 VH with R54H
VL: B1 VL with H55L
Take B22: in assay [1], the dissociation constant Kd worked out at 1.2 nM, the dissociation rate constant (koff) was 3.96e-05 s⁻¹ and the kon amounted to 32900 M⁻¹ s⁻¹. Besides, in assay [2], the Kd came out at 6.08 nM, the off-rate constant (koff) is 0.000271 s⁻¹ and the kon stood at 44600 M⁻¹ s⁻¹.

B23: VRDN-02549 (antibody, V domains shown)
VH: B1 VH
VL: B1 VL with H55L, R93H
B23: in assay [1], the Kd was 0.0251 nM, the dissociation rate constant (koff) was found to be 1e-06 s⁻¹ and the kon was 39800 M⁻¹ s⁻¹. Besides, in assay [2], the Kd stood at 0.327 nM, the koff was found to be 3.89e-05 s⁻¹ and the on-rate (kon) turned out to be 119000 M⁻¹ s⁻¹.

B24: VRDN-02566 (antibody, V domains shown)
VH: B1 VH with A96H, M105H
VL: B1 VL with H55L
As to B24, in assay [1], the Kd is 3 nM, the koff stood at 0.00885 s⁻¹ and the kon was found to be 2.95e+06 M⁻¹ s⁻¹. For the same molecule, in assay [2], the Kd is 17.4 nM, the koff came out at 0.0197 s⁻¹ and the kon came out at 1.14e+06 M⁻¹ s⁻¹.
